Test results published in doi:10.1101/2025.11.18.25340499 (medRxiv, 2025).

B1: 13-3B5 (antibody, V domains shown)
VH: QVQLVQSGAVVAKPGASVQVSCKTSGYTFTGQYLHWVRQAPGQGLEWIGWINPSSGVTKFAEKFEGRATMTRDTSITTAYIDLRSLRSDDTATYYCATLSLGVYYVGMVAWGQGTLVTVSS
VL: SYELTQPPSVSVSPGQTATITCSGDGLAQQHVYWFQQRPGQAPLLIIYKDIERPSGIPERFSGSSSGTTAMLTISGVQAEDEADYYCQSGDRTATSVLFGGGTKMTVL
B2: MuSK1B (antibody, V domains shown)
VH: EVQLVEWGAGLLKPSETLSLTCAVYGGSFSGDYWWTWIRQPPGKGLEWIGEIDHTGNTNYNPSLKSRLTLSVDMSKNHFSLKLTSVTAADTALYFCARQEGLGYYDSWGQGTLVTVSS
VL: SYELTQSPSVSVSPGQTANITCSGDKLGDRYASWYQQKPAQSPVLVIYQDDRRPSGIPERFSGSNSGNTATLTISGTQGMDEADYYCQAWDGTTVFGGGTKLTVL
B3: 11-3F6 (antibody, V domains shown)
VH: EVQLVESGGGLVKPGGSLRLSCAASGFTFSSYTMDWVRQAPGKGLEWVSSIGSNGDYIYYADSVRGRFTISRDNAKNSLYLQMNSLRPDDTADYYCARGQLAVAGTHFDYWGRGSLVTVSS
VL: DIQMTQSPSSLSASVGDRVTISCRASQKVNKYVNWYQQTPGKAPRLLIYAASTLQSGVPSRFSGSGSGANFTLTISGLQPEDFAIYFCQQSYSPLCTFGQGTKLEIK
B4: MuSK1A (antibody, V domains shown)
VH: QVQLVQSGAEVKKPGASVKVSCKTSGYTFNNYDINWVRQAAGQGLEWMGWMNPYSGNTGYAQKFQGRVTMTRNISITTVYMELSSLRSEDTAVYYCAREVRGDTGYGGGSDYWGQGTLVTVSS
VL: SYELTQPPSVSLSPGQTATITCSGDKLDDNYVCWYQQKPGQSPVLVIYQDTMRPSGIPERFSGSNSGNIATLTISGTQAVDEADYYCQAWDGSTVVFGGGTRLTVL

What was measured:
MuSK Bait [1] = target: T1, MuSK Bait (Homo sapiens (species of MuSK not …, UniProt O15146)); assay: SPR
MuSK Bait [2] = target: T1, MuSK Bait; assay: AlphaScreen or HTRF

| Binder | binding result (MuSK Bait [1]) | binding result (MuSK Bait [2]) |
| --- | --- | --- |
| B1 | binds | – |
| B2 | – | binds |
| B3 | – | binds |
| B4 | – | binds |
